Paper PMC11189300, “Structure of the human KMN complex and implications for regulation of its assembly” (Nature Structural & Molecular Biology, 2024)

Key:
Assay in all cases: cryo-EM structure; eight-subunit KMN (full-length Mis12C, SPC24 109–197/SPC25 92–224, ZWINT, KNL1 2,021–2,342), 0.3 mg/ml with 0.003% Triton; reconstruction at 4.5 Å; model fitted from known structures and AF2 predictions and refined against the map
Details in all cases: both partners purified
[1] = target: T1, DSN1 (subunit of Mis12C in the KMN structure) (human, UniProt Q9H410 1-356)
T1 construct: DSN1, human; also called DSN1^SORT-HIS; source: Tnao38 insect cells (baculovirus), co-expressed in Mis12C, purified (Talon, SEC)
T1 sequence (looked up): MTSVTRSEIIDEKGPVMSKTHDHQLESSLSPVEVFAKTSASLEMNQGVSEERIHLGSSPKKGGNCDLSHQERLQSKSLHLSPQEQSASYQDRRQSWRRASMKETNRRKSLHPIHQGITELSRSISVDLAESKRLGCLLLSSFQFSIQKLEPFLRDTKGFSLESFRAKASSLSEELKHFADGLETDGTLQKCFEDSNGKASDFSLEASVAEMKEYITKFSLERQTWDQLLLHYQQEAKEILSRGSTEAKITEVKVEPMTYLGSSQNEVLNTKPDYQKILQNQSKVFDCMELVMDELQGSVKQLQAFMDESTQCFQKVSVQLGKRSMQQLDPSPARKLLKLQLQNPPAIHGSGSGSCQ

[2] = target: T2, NSL1 (subunit of Mis12C in the KMN structure) (human, UniProt Q96IY1 1-281)
T2 construct: NSL1, human; source: Tnao38 insect cells (baculovirus), co-expressed in Mis12C, purified (Talon, SEC)
T2 sequence (looked up): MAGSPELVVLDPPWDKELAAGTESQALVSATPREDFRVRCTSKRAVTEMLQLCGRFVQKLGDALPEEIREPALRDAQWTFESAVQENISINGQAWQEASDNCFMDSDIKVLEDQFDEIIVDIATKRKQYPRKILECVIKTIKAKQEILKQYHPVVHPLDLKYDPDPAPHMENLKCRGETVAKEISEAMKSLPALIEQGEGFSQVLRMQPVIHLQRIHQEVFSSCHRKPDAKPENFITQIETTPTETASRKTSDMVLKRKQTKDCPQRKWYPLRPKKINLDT

SPC25_(92–224) = target: T3, SPC25_(92–224) (human, UniProt Q9HBM1 92-224)
T3 construct: SPC25, human, residues 92–224 (RWD domain); source: E. coli BL21(DE3)-codon-plus-RIPL, co-purified with SPC24 (glutathione-agarose, 3C protease, SEC)
T3 sequence (looked up): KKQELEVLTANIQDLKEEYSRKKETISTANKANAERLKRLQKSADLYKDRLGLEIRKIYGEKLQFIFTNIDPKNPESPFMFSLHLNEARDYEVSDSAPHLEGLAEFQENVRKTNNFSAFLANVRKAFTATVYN

Measured: binding result

B1: SPC24_(109–197) (domain or fragment, human, UniProt Q8NBT2 109-197, looked up)
chain: EELKEIEADLERQEKEVDEDTTVTIPSAVYVAQLYHQVSKIEWDYECEPGMVKGIHHGPSVAQPIHLDSTQLSRKFISDYLWSLVDTEW
notes: source: E. coli BL21(DE3)-codon-plus-RIPL, co-purified with SPC25 (glutathione-agarose, 3C protease, SEC)
binds: [1] | [2] | SPC25_(92–224)
